Measurements: patent publication US10196442B2, “Methods of inhibiting growth of a colon cancer tumor in a subject by administering monoclonal antibodies to G protein-coupled receptor 49 (GPR49)” (Bionomics Inc., priority 2011, dated 2019)

How the values were obtained:
GPR49-Fc = target: T1, GPR49-Fc (Homo sapiens, UniProt O75473); assay: Solution affinity surface plasmon resonance of RSPO-1 on GPR49-Fc; type: binding; details: solution affinity SPR
T1 construct: FLAG (C)
Experimental: Methods: Binding of RSPO to GPR49 was analyzed using solution affinity surface plasmon resonance (Day E S, et al. Biochemistry. 2005 Feb. 15; 44(6):1919-31). The method utilizes conditions of so-called “mass-transport-limited” binding, in which the initial rate of ligand binding (protein binding to the senor chip) is proportional to the concentration of ligand in solution (BIApplications Handbook (1994) Chapter 6: Concentration measurement, pp 6-1-6-10, Pharmacia Biosensor AB). Under these conditions, binding of the soluble analyte (protein flowing over chip surface) to the immobilized protein on the chip is fast compared to the diffusion of the analyte into the dextran matrix on the chip surface. Therefore, the diffusion properties of the analyte and the concentration of analyte in solution flowing over the chip surface determine the rate at which analyte binds to the chip. In this experiment, the concentration of free RSPO-1 in solution is determined by the initial rate of binding to a CMS Biacore chip containing immobilized GPR49-Fc. Into these RSPO-1 solutions were titrated the competing GPR49-Fc.

[1] = tested on: NIH 3T3 fibroblast cells stably transfected with GPR49; assay: Cell Titer Glo proliferation of GPR49-3T3 cells; type: cell-based

T1 sequence (O75473 with tags, fused parts or gaps): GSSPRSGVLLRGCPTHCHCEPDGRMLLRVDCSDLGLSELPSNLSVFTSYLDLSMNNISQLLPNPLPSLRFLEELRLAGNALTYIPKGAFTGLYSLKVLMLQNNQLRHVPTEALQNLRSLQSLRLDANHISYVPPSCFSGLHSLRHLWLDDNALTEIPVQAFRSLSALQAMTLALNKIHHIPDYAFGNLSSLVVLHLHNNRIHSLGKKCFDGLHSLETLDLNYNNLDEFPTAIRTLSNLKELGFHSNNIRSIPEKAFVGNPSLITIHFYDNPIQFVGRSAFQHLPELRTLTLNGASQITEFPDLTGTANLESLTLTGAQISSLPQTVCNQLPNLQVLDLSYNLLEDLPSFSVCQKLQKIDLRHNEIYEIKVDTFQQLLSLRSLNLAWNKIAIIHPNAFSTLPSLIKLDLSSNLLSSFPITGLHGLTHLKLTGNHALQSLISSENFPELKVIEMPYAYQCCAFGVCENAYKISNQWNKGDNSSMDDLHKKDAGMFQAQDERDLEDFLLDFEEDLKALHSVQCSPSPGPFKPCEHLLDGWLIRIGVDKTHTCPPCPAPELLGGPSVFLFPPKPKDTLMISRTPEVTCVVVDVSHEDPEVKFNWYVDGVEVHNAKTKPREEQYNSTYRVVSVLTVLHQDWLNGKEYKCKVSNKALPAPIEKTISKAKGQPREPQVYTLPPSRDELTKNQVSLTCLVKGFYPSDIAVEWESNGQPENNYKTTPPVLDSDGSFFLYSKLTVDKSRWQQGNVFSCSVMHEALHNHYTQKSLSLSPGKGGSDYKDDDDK

binding profile to GPR49-Fc (GPR49-Fc): bi-phasic binding profile
B1: R-spondin 1: R-spondin family ligand purchased from R& D systems (protein, UniProt Q2MKA7 21-263, looked up)
R-spondin-1: SRGIKGKRQRRISAEGSQACAKGCELCSEVNGCLKCSPKLFILLERNDIRQVGVCLPSCPPGYFDARNPDMNKCIKCKIEHCEACFSHNFCTKCKEGLYLHKGRCYPACPEGSSAANGTMECSSPAQCEMSEWSPWGPCSKKQQLCGFRRGSEERTRRVLHAPVGDHAACSDTKETRRCTVRRVPCPEGQKRRKGGQGRRENANRNLARKESKEAGAGSRRRKGQQQQQQQGTVGPLTSAGPA
increase in proliferation ([1]; GPR49-3T3 clone 28, compared to Stanniocalcin): 4 fold | increase in cell proliferation ([1]; GPR49-3T3 clone 50, 2 days, serum free, compared to Stanniocalcin): 25-40%
